Test: yeast display, Sf9 membrane polyspecificity reagent, FACS + sequencing; frameworks hold sequencing errors
How it was run: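 After 36–48 hours of galactose induction, yeast (Saccharomyces cerevisiae BJ5465) displaying a synthetic nanobody library were stained at 4 °C for 1 hour with 10% biotinylated, detergent-solubilized Sf9 membrane reagent. Streptavidin microbeads enriched the stained cells before FACS sorting into low and high (top ~1%) gates on anti-HA and streptavidin fluorescence. Each clone's polyreactivity label reflects its gate of origin.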

Row | Sequence | polyreactivity (PSR sort gate)
1 | QVQLVESGGGLVQAGGSLRLSCAPSGRIFYAYAMGWYRHAPGKERELVAAITIGGNTNYADSVKGRFTSSRDNAKNTVYLQMNSLKPEVTAVYDCNARTYYYPWRGYHVVGSNDLGYWGQGTQVTVST | low polyreactivity
2 | QVQLVESGGGLVQAGGSLRLSCAPSGRTFKVNDMGWYRQAPGKERELVAAINYRGGRTYYADSVKGRFTISRDNAKNNFYLQMNSLKPEDTAFYYCNAQSGVVADDYWGQGTQVTVSS | high polyreactivity
3 | QVQLVESGGGLVQAGGSLRLSCAPSGRTFRYYTMGWYRQAPGKERELVAAISSAGRTYYADSVKGRFTISRDNAKNTVYLQMNSLKPEDTAVYYCAAYGGDKIRMDYWGQGTQVTVSS | high polyreactivity
4 | QVQLVESGGGLVQAGGSLRLSCAPSGRTFVHYTMGWYRQAPGKERELVAAISGTGTSTYYADSVKGRFTISRDNAKNTVYLQMNSLKPEDTAVYYCARRYWYPDAFYRYDYWGQGTQVTVSS | low polyreactivity
5 | QVQLVESGGGLVQAGGSLRLSCAPSGRTFWAYAMGWYRQAPGKERELVAAITTSGGSTNYADSVKGRFTISRDNAKNTVYLQMNSLKPEDTAVYYCNADPTYHVVNGVGYWGQGTQVTESS | low polyreactivity
6 | QVQLVESGGGLVQAGGSLRLSCAPSGRTFYPNVMGWSRQAPGKERELVAAITSGGSTYYADSVKGRFTISRDNAKNTVYLQMNSLKPEDTAVYYCAVAYAGGGSRKYDYWGQGTQVTVSS | low polyreactivity
7 | QVQLVESGGGLVQAGGSLRLSCAPSGRTLFTNAMGWYRQAPGKERELVAAISIGGTTYYADSVKGRFTISRDNAKNTVYLQMNSLKPEDTAVYYCNKVRRFHSEYGYWGQGTQVTVSS | high polyreactivity
8 | QVQLVESGGGLVQAGGSLRLSCAPSGRTLRGYAMGWYRQAPGKEREFVAAISSRGGSTYYADSVKGRFTISRDNAKNTVYLQMHSLKPEDTAVYYCAALRPLFATSHARDYWGQGTQVTVSS | high polyreactivity
9 | QVQLVESGGGLVQAGGSLRLSCAPSGRTLYNYAMGWTRQAPGKERELVASITWSGGSTYYADSVKGRFTISRDNAKNTVYLQMTSLKPEDTAVYYCAAESSPGTFVRYGYRRYYYWGQGTQVTVSS | low polyreactivity
10 | QVQLVESGGGLVQAGGSLRLSCAPSGRTYTVYTMGWYRQAPGKERELVAVISTGGRTYYADSVKGRFTISRDNAKNTVYLQMNSLKPEDTAVYYCAAKFTREYYWGQGTEVTVSS | high polyreactivity
11 | QVQLVESGGGLVQAGGSLRLSCAPSGSIFHYNAMGWYRQAPGKEREFVAVISKSSGSTFYADSVKGRFTISRDNAKNTVYLLMISLKPEDTAVYYCNRVTKRYPNIGNYWGQGTQVSVSS | high polyreactivity
12 | QVQLVESGGGLVQAGGSLRLSCAPSGSIFPDYAMGWYRHAPGKQRELVAAIRSGSRTYYADSVKGRFTISRDNAKITVYLQMNSLNPEDTAVYYCATTYGTPRYDYWGQGTQVTVSS | high polyreactivity
13 | QVQLVESGGGLVQAGGSLRLSCAPSGSIFPYYAMGWYRQAPGKERELVAVITTSGGRTYYADSVKGRFTISRDNAKNTVYLQMNSLKPEDTAVYYCATDVRQGSGWRYYYWGQGTQVTVSS | high polyreactivity
14 | QVQLVESGGGLVQAGGSLRLSCAPSGSIFRVYAMGWYRQAPGKERELVAAITIGTSTNYADSVKGRFTISRDNAKNTVYLQMNSLKPEDTAVYYCAAEWSYNLDSIASSPTSYDYWGQGTQVTVSS | low polyreactivity
15 | QVQLVESGGGLVQAGGSLRLSCAPSGSISQTYAMGWYRQAPGKERELVAAISSSGASTYYADSVKGRFTISRDNAKNTVYLQMNSLKPEDTAVYYCAALGRYRYIYNYWGQGTQVTVSS | high polyreactivity
16 | QVQLVESGGGLVQAGGSLRLSCAPSGSTFNYNAMVWYRQAPGKERELVARISWRGGSTYYADSVKGRFTISRDNAKNTVYLQMNSLKPEATAVYYCAATRYWYGSTYDYWGQGTQVTVSS | high polyreactivity
17 | QVQLVESGGGLVQAGGSLRLSCAPSGSTFPQYAMGWYRQAPGKERELVADISSGVSTNYADSVKGRFTISRDNAKNTVYLLMNSLKPEDTAVYYCAAQAYVEGVYRYDYWGQGTQVTVSS | low polyreactivity
18 | QVQLVESGGGLVQAGGSLRLSCAPSGSTFPWNAMGWYRQAPGKERELVAAIRTGGGRTYYADSVKGRFTISRDNAKNTVYLQMNSLKPEDTAVYYCNAYFTYWSQLYYWGQGTQVTVSS | high polyreactivity
19 | QVQLVESGGGLVQAGGSLRLSCAPSGSTFRFYAMGWYRQAPGKERELVAVISSAGSTNYADSVKGRFTISRDNAQNTVYLQMNSLKPEDTAVYYCAAYRRYSIYNYWGQGTQVTVSS | high polyreactivity
20 | QVQLVESGGGLVQAGGSLRLSCAPSGSTFTSYAMGWYRQAPGKDRELVAAITYGSGTTYADSVKGRFTISRDNAKNTVYLQMNSLKPEDTAVYYCAADFYYPVLGHGFPTYEYDYWGQGTQVTVSS | low polyreactivity
21 | QVQLVESGGGLVQAGGSLRLSCAPSGSTFTSYAMGWYRQAPGKERELVAAITYGSGTTYADSVKGRFTISRDNAKNTVYLQMNSLKPEDTAVYYCAADFYYPVLGHGFPTYEYDYWGQGTQVTVSS | low polyreactivity
22 | QVQLVESGGGLVQAGGSLRLSCAPSGSTFVRYAMGWYRQAPGKESELVAAISKSGVSTYYADSVKGRFTISRDNAKNTVNLQMNSLKPEDTAVYYCAAYARGVRRYRRYDYWGPGTQVTVSS | high polyreactivity

Row | Sequence | polyreactivity (PSR sort gate)
23 | QVQLVESGGGLVQAGGSLRLSCAPSGSTFVYYAMGWYRPAPGKERELVAAINRSGTRTYYADSVKGRFSISRDNAKNTVYLQMNSLKPEDTAVYYCDKAVQGKYGYWGQGTQVTVSS | high polyreactivity
24 | QVQLVESGGGLVQAGGSLRLSCAPSGSTFYKNAMGWYRQAPWKERELVAGISRRGGRTYYADSVKGRFSISRDNAKNTVYLQMNSLKPEDTAVYYCNARLLSGPGYDYWGQGTQVTVSS | low polyreactivity
25 | QVQLVESGGGLVQAGGSLRLSCAPSGSTFYYYAMGWYRQAPGKERELVAAITYRGGTYYADSVKGRFTISRDNAKNTVYLQMNSLKPEDTAVYYCAAPLSRIMDYWGQGTQVTVSS | high polyreactivity
26 | QVQLVESGGGLVQAGGSLRLSCAPSGSTLNVYAMGWYRQAPGKERELVAAIRWSGDTYYADSVKGRFTISRDNAKNTVYLQMNSLKPEDTAVYYCAADPGTTYWQRFDYWGQGTQVTVSS | low polyreactivity
27 | QVQLVESGGGLVQAGGSLRLSCAPSGYIFPFNALGGYRQAPGKERELVAAINNGGRTYYADSVKGRFTISRDNAKNTVFLQMHSLKPEDTAVDSCAAGSKSDMDWGQGTQVTVSS | low polyreactivity
28 | QVQLVESGGGLVQAGGSLRLSCAPSGYTFARYAMGWSRQAPGKDRELVAAITSSGGSTYYADSVKGRFTSSRDNAKNTVYLQMNSLKPEDTAVYYCNARGFQKSDPRGYLILNYWGQGTQVTVSS | high polyreactivity
29 | QVQLVESGGGLVQAGGSLRLSCAPSRRIFRSYAMGWYSQAPGKERELVAAISSRGSTYYADSVKGRFTISRDNEKNTVFLQMNSLKPEDTAVYYCAVHLWVYPLKREFYWGQGTQVTVSS | high polyreactivity
30 | QVQLVESGGGLVQAGGSLRLSCASSGFAYSYYAMGWYRQAPGKEREFVASIDWSGGSTYYADSVKGRITISRDNAMNTVYLQMNSLKPEATAVYYCAAELDYFPGYDSWGQGTQVTVSS | low polyreactivity
31 | QVQLVESGGGLVQAGGSLRLSCASSGFIFPWNAMGWYRQAPGKERELVADISTGTSRTYADSVKGRFTISRDNAKNTVYFQMNSLKPEDTAVYYFNKAHNYKYDWGQGTQVTVSS | low polyreactivity
32 | QVQLVESGGGLVQAGGSLRLSCASSGFIFYYNAMGWYRQAPVKERELVAAISYGGGSTYYADSVKGRFTISRDNAKNTVYLQMNSLKPEDTAVYYCSARVYWWNASLAGNYWGQGTQVTVSW | low polyreactivity
33 | QVQLVESGGGLVQAGGSLRLSCASSGFSFDYYVMGWYRQAPGKEMELVASNRSRGASTHYADSVKGRFTISRDNAKNTVYLQMNRLKTEDTAVYYCAKGGGYRRAARSFGGGDYWGQGTHVTVSS | low polyreactivity
34 | QVQLVESGGGLVQAGGSLRLSCASSGFTFARYAMGWYRPAPGKEREFVAAIDKSGGSTYYADSVTGRFTISRDNAKNTVYLQMNSLKPEDTAVYYCAAGFGRVFSSIYGYWGQGTQVTVSS | high polyreactivity
35 | QVQLVESGGGLVQAGGSLRLSCASSGFTFGWYDMGWYRQAPGKERELVASISWSGSSTYYADSVKGRFTISRDNAKNTVYLQLNSLKPEDTAVYYCNAVSVDYVNWYWYDYWGQGTQVTVSS | high polyreactivity
36 | QVQLVESGGGLVQAGGSLRLSCASSGFTFKFNAMGWYRPAPGKERELVAAISQSGVNTYYADSVKGRFTISRDNAKNTVFLLMNSLKPEDTAVYYCAADFSAYGYDYWGQGTQVTVSS | low polyreactivity
37 | QVQLVESGGGLVQAGGSLRLSCASSGFTFRSYAMGWYRQAPGKERELVAAIRWSGDSTYYADSVKGRFTISRDNAKNTVYLQMTSLKPEDTAVYYCAAGTYLRYGYWGQGTQVTVSS | high polyreactivity
38 | QVQLVESGGGLVQAGGSLRLSCASSGFTFVYNAMGWYRHAPGKERELVAAITSGGNTYYADSVKGRFTISRDNAKNTVYLQMNSLIPEDTAVYYCAKRGYGRYYAYDYWGQGTQVTVSS | high polyreactivity
39 | QVQLVESGGGLVQAGGSLRLSCASSGFTFWYYAMGWYRQAPGKERELVASISRTGGTTYYADSVKGRFTISRDNAKNTVYLQMNSLKPEDTAVYYCNARPKVYYREYDYWGQGTQVSVSS | high polyreactivity
40 | QVQLVESGGGLVQAGGSLRLSCASSGFTFYYYAMGWYRQAPGKEMELVAAIDTSDGSTYYADSVKGRFTISRDNAKNTVYLQMNSLKPEDTAVYYCAAEVDWVPFLLDYWGQGTQVTVSS | low polyreactivity
41 | QVQLVESGGGLVQAGGSLRLSCASSGFTSRYVMGWYRQAPGKEMELVASISRSGGSTYYADSVKGRFTISRDNAKNTVYLQMNSLKPEDTAVYYCAADATPTDMDYLGQGTQVTVSS | high polyreactivity
42 | QVQLVESGGGLVQAGGSLRLSCASSGGTFTAYAMGWYSQAPGKERELVAAITTNGGRTYYADSVKGRFTISRDNAKNTVYLQMNSLKPEDTAVDYCNRVSLSRRWFLYDYWGQGTQVTVSS | high polyreactivity
43 | QVQLVESGGGLVQAGGSLRLSCASSGIIFHYYAKGWYRQAPGKERELVATISWDGGNTYYADSVKGRFTISRDNAKNRVYLQMNSLKPEDTAVYYCNVYDKAPAYAYWGQGTQVTVSS | low polyreactivity

From the nanobody polyreactivity screen of Harvey et al. (2022)
